US20240417762A1, “MICROORGANISMS AND METHODS FOR PRODUCING REUTERIN” (Wisconsin Alumni Research Foundation, priority 2023, published 2024)

Test system: reuterin production
Experiment: Determination of reuterin formation during growth of L. reuteri ATCC PTA-6475 and its variants
Format: cell-based, Limosilactobacillus reuteri
Description: FIGS. 5A-5E. Reuterin production of L. reuteri ATCC PTA-6475 and its variants during the growth. Overnight cells were inoculated to reach an initial OD 0.1 in mMRS supplemented with 100 mM glucose and 40 mM glycerol. Supernatant was collected every hour during the growth at 37° C. and the reuterin concentrations were determined. The number of cells of each strain at each time point was normalized to an OD of 3. Data are shown as means±standard deviations for three independent experiments. Statistical significance was determined by unpaired t-test. * P<0.05; **** P<0.0001. In FIGS. 5C and 5D, “orf14” refers to orf14 from L. reuteri. In FIG. 5E, the origins of the orf14 genes (L. mucosae or L. reuteri) are indicated.
To characterize the reuterin production during growth, strains were cultured at 37° C. anacrobically in deMan-Rogosa-Sharpe medium (MRS; 288110, BD BioSciences) for 18 h, and then bacteria were sub-cultured to reach an initial OD600 of 0.1 in modified MRS (10 g peptone, 10 g beef extract, 5 g yeast extract, 2 g ammonium citrate dibasic, 2 g K2HPO4, 0.1 g MgSO4, 0.05 g MnSO4, and 1.0 g Tween 80 per liter) supplemented with 100 mM glucose. Cultures were incubated anaerobically at 37° C. Strains harboring pSIP411 or its variants were grown in mMRS supplemented with 5 μg/mL erythromycin. Where applicable, induction peptide (10 ng/ml) (MAGNSSNFIHKIKQIFTHR (SEQ ID NO:34)) was added. Samples were collected every hour up to 8 hours. Cell density was monitored using GENESYS 20 visible spectrophotometer (Thermo Scientific) and reuterin production was measured as described in Zhang et al. 2020. Briefly, cell-free supernatants (50 μL) were mixed with 37.5 μL tryptophan (Sigma-Aldrich) in a 96 well plate, followed by an addition of 150 μL 37% HCl (Thermo scientific). After incubating at 37° C. for 20 min, OD560 was measured by GloMax plate reader (Promega). Two-fold dilutions of acrolein (06-722-501, ThermoFisher) were used to generate a standard curve to quantify reuterin (Doleyres et al. 2005). […]

Molecule	higher reuterin production compared to the overexpression of native Orf14 (overexpression in L. reuteri (FIG. 5E))	increase in reuterin production compared to that in the wildtype strain (Orf14 overexpressed in L. reuteriΔΦ1ΔΦ2, following 5 h incubation, P<0.05)	reuterin production (growth at 37° C. in mMRS with 100 mM glucose and 40 mM glycerol, supernatant, normalized to OD 3)
Orf14-mucosae: Limosilactobacillus mucosae Orf14 protein (SEQ ID NO:4), natural homolog, codon optimized for expression in L. reuteri (protein, listed as Lactobacillus mucosae) MKRVKELCKKYQQVIYTLLAVVAIVGVVYFALHGFNSFIKWATTDVGSVADWAGSIGTILAFIAVIWQQGRQENITRAVHVEESRPRFSVTYTPKPQAKTKMLFWGNNRTLSQINTMLNNRNGENYRFINIENISNNVVYDYSIILKYHFYDNSLVRKDYWSSHGLFPRRSIIIVPKFLGTGKDKIGNYIYDELLIKFTTPANEIGFFKMTNVNGNRTDSSFGDSQYYFVRGSHIKRVTAINTDEMIKADSPLCRKLDREFSETTGGTNFGAIGEDGKAY	2.9 fold		
Orf14: Limosilactobacillus reuteri Orf14 phage protein (SEQ ID NO:2), overexpressed from pSIP-orf14 (protein, listed as Lactobacillus reuteri) VIYMNKIKRLCKKYQQVIYTLFAVLVIISVVYFALHGFDSFVKWATTDVGSVADWAGSIGTILAFVAVIWQQGRQENITRAVHIEESRPRFSLTYTPKPVLKTRVLFWGNGRTAVNINEILGSRSAENYRFISIENISNNVVYDYSIILKYHSNDNARVRKDYWSSHGLFPRRSVAIVPKFMGTDKDKIGNYIYDELLVKFTTPANEVGFFISKNINNAQTDSSFGKSQYYFVRGSHVKRVTAINTDKMIDVDSSICRKLDKEFDEIIGITSLGEINENGKLS		3 fold	rescued reuterin production
